Literature values as cited in patent US12370207B2, “Low-intensity treatment of hematological disorders” (Celator Pharmaceuticals, Inc., priority 2018, dated 2025).

Columns and labels:
[1] = tested on: hematological malignancies; conditions: single agent, ISICT patients
[2] = population mean

Row | Molecule | median overall survival [1] | response rates [1] | Fi, bioavailability of first-order absorption process [2] | CL, clearance ([2]; coefficient of equation (WTKG/70)^0.641)
1 | Nc1ccn([C@@H]2O[C@H](CO)[C@@H](O)[C@@H]2O)c(=O)n1 [LDAC] | 7-10 months | less than 20% | – | –
2 | Pegfilgrastim: exogenous (recombinant) GCSF agent (protein, UniProt P09919 31-207, looked up, PEGylated, N-terminal Met (pegfilgrastim), exogenous (recombinant) GCSF agent) Granulocyte …: TPLGPASSLPQSFLLKCLEQVRKIQGDGAALQEKLVSECATYKLCHPEELVLLGHSLGIPWAPLSSCPSQALQLAGCLSQLHSGLFLYQGLLQALEGISPELGPTLDTLQLDVADFATTIWQQMEELGMAPALQPTQGAMPAFASAFQRRAGGVLVASHLQSFLEVSYRVLRHLAQP | – | – | 0.646 | 0.362 · (WTKG/70)^0.641 L/h
3 | Filgrastim: exogenous (recombinant) GCSF agent (protein, UniProt P09919 31-207, looked up, N-terminal Met (filgrastim), exogenous (recombinant) GCSF agent) Granulocyte …: TPLGPASSLPQSFLLKCLEQVRKIQGDGAALQEKLVSECATYKLCHPEELVLLGHSLGIPWAPLSSCPSQALQLAGCLSQLHSGLFLYQGLLQALEGISPELGPTLDTLQLDVADFATTIWQQMEELGMAPALQPTQGAMPAFASAFQRRAGGVLVASHLQSFLEVSYRVLRHLAQP | – | – | 0.105 | –
